Reference: publication PMC9395280

Biological target: SARS-CoV-2 WT RBD protein (SARS-CoV-2, wild-type (ancestral)) (UniProt P0DTC2)
Assay: SPR

P2C-1F11-I27F (antibody)
fold decrease of affinity against P2C-1F11: > 7 fold
